Experimental data reported in paper PMC9408373 (2022).
One block for each binder: values may come before it.

How the values were obtained:
[1] = biological target: T1, human CDC42 (aa 1-178), wild type (human, UniProt P60953 1-178); assay: FP; mGDP-bound CDC42
[2] = biological target: T1, human CDC42 (aa 1-178), wild type; assay: FP; mGppNHp-bound CDC42

T1 sequence (P60953 1-178): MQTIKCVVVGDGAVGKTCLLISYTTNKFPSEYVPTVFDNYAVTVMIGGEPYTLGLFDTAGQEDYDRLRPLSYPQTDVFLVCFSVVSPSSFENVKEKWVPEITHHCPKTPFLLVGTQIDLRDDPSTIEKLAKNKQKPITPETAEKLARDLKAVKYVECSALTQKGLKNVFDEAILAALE

Kd [1]: 113 µM
B1: human IQGAP2 C795 (aa 780-1575) (domain or fragment)
chain: PLTVIRKFVYLLDQSDLDFQEELEVARLREEVVTKIRANQQLEKDLNLMDIKIGLLVKNRITLEDVISHSKKLNKKKGGEMEILNNTDNQGIKSLSKERRKTLETYQQLFYLLQTNPLYLAKLIFQMPQNKSTKFMDTVIFTLYNYASNQREEYLLLKLFKTALEEEIKSKVDQVQDIVTGNPTVIKMVVSFNRGARGQNTLRQLLAPVVKEIIDDKSLIINTNPVEVYKAWVNQLETQTGEASKLPYDVTTEQALTYPEVKNKLEASIENLRRVTDKVLNSIISSLDLLPYGLRYIAKVLKNSIHEKFPDATEDELLKIVGNLLYYRYMNPAIVAPDGFDIIDMTAGGQINSDQRRNLGSVAKVLQHAASNKLFEGENEHLSSMNNYLSETYQEFRKYFKEACNVPEPEEKFNMDKYTDLVTVSKPVIYISIEEIISTHSLLLEHQDAIAPEKNDLLSELLGSLGEVPTVESFLGEGAVDPNDPNKANTLSQLSKTEISLVLTSKYDIEDGEAIDSRSLMIKTKKLIIDVIRNQPGNTLTEILETPATAQQEVDHATDMVSRAMIDSRTPEEMKHSQSMIEDAQLPLEQKKRKIQRNLRTLEQTGHVSSENKYQDILNEIAKDIRNQRIYRKLRKAELAKLQQTLNALNKKAAFYEEQINYYDTYIKTCLDNLKRKNTRRSIKLDGKGEPKGAKRAKPVKYTAAKLHEKGVLLDIDDLQTNQFKNVTFDIIATEDVGIFDVRSKFLGVEMEKVQLNIQDLLQMQYEGVAVMKMFDKVKVNVNLLIYLLNKKFYGK

Kd [1]: 64 µM
B2: human IQGAP1 C794 (aa 863-1657) (domain or fragment)
chain: DPPMVVVRKFVHLLDQSDQDFQEELDLMKMREEVITLIRSNQQLENDLNLMDIKIGLLVKNKITLQDVVSHSKKLTKKNKEQLSDMMMINKQKGGLKALSKEKREKLEAYQHLFYLLQTNPTYLAKLIFQMPQNKSTKFMDSVIFTLYNYASNQREEYLLLRLFKTALQEEIKSKVDQIQEIVTGNPTVIKMVVSFNRGARGQNALRQILAPVVKEIMDDKSLNIKTDPVDIYKSWVNQMESQTGEASKLPYDVTPEQALAHEEVKTRLDSSIRNMRAVTDKFLSAIVSSVDKIPYGMRFIAKVLKDSLHEKFPDAGEDELLKIIGNLLYYRYMNPAIVAPDAFDIIDLSAGGQLTTDQRRNLGSIAKMLQHAASNKMFLGDNAHLSIINEYLSQSYQKFRRFFQTACDVPELQDKFNVDEYSDLVTLTKPVIYISIGEIINTHTLLLDHQDAIAPEHNDPIHELLDDLGEVPTIESLIGESSGNLNDPNKEALAKTEVSLTLTNKFDVPGDENAEMDARTILLNTKRLIVDVIRFQPGETLTEILETPATSEQEAEHQRAMQRRAIRDAKTPDKMKKSKSVKEDSNLTLQEKKEKIQTGLKKLTELGTVDPKNKYQELINDIARDIRNQRRYRQRRKAELVKLQQTYAALNSKATFYGEQVDYYKSYIKTCLDNLASKGKVSKKPREMKGKKSKKISLKYTAARLHEKGVLLEIEDLQVNQFKNVIFEISPTEEVGDFEVKAKFMGVQMETFMLHYQDLLQLQYEGVAVMKLFDRAKVNVNLLIFLLNKKFYGK

Kd [1]: 55 µM
B3: human IQGAP2 GRD2 (aa 875-1246) (domain or fragment)
chain: SKERRKTLETYQQLFYLLQTNPLYLAKLIFQMPQNKSTKFMDTVIFTLYNYASNQREEYLLLKLFKTALEEEIKSKVDQVQDIVTGNPTVIKMVVSFNRGARGQNTLRQLLAPVVKEIIDDKSLIINTNPVEVYKAWVNQLETQTGEASKLPYDVTTEQALTYPEVKNKLEASIENLRRVTDKVLNSIISSLDLLPYGLRYIAKVLKNSIHEKFPDATEDELLKIVGNLLYYRYMNPAIVAPDGFDIIDMTAGGQINSDQRRNLGSVAKVLQHAASNKLFEGENEHLSSMNNYLSETYQEFRKYFKEACNVPEPEEKFNMDKYTDLVTVSKPVIYISIEEIISTHSLLLEHQDAIAPEKNDLLSELLGSLGE

Kd [1]: 150 µM
Kd [2]: 152 µM
B4: human IQGAP1 GRD1 (aa 962-1345) (domain or fragment)
chain: SKEKREKLEAYQHLFYLLQTNPTYLAKLIFQMPQNKSTKFMDSVIFTLYNYASNQREEYLLLRLFKTALQEEIKSKVDQIQEIVTGNPTVIKMVVSFNRGARGQNALRQILAPVVKEIMDDKSLNIKTDPVDIYKSWVNQMESQTGEASKLPYDVTPEQALAHEEVKTRLDSSIRNMRAVTDKFLSAIVSSVDKIPYGMRFIAKVLKDSLHEKFPDAGEDELLKIIGNLLYYRYMNPAIVAPDAFDIIDLSAGGQLTTDQRRNLGSIAKMLQHAASNKMFLGDNAHLSIINEYLSQSYQKFRRFFQTACDVPELQDKFNVDEYSDLVTLTKPVIYISIGEIINTHTLLLDHQDAIAPEHNDPIHELLDDLGEVPTIESLIGESS
